Results from article PMC9841331 (The EMBO Journal, 2023).
Positions count from the first letter of the chain named. “And” between values parts separate entries of the source, which are not always exact repeats. Equal entries are not always repeated.

Columns and labels:
[1] = biological target: retromer^mRuby (yeast Vps26/Vps29/Vps35 complex labelled with mRuby) (S. cerevisiae, UniProt P40335 1-379; P38759 1-282; P34110 1-944); assay: fluorescence microscopy of recruitment to supported membrane tubes
native gel or EMSA = biological target: the molecule itself; assay: native gel or EMSA

B1: SNX-BAR complex (yeast sorting nexins Vps5/Vps17) (complex, S. cerevisiae)
chain 1: MDYEDNLEAPVWDELNHEGDKTQSLVSNSIESIGQISTNEERKDNELLETTASFADKIDLDSAPEWKDPGLSVAGNPQLEEHDNSKADDLINSLAPEQDPIADLKNSTTQFIATRESGGALFTGNANSPLVFDDTIYDANTSPNTSKSISGRRSGKPRILFDSARAQRNSKRNHSLKAKRTTASDDTIKTPFTDPLKKAEKENEFVEEPLDDRNERRENNEGKFTASVEKNILEQVDRPLYNLPQTGANISSPAEVEENSEKFGKTKIGSKVPPTEKAVAFKVEVKDPVKVGELTSIHVEYTVISESSLLELKYAQVSRRYRDFRWLYRQLQNNHWGKVIPPPPEKQSVGSFKENFIENRRFQMESMLKKICQDPVLQKDKDFLLFLTSDDFSSESKKRAFLTGSGAINDSNDLSEVRISEIQLLGAEDAAEVLKNGGIDAESHKGFMSISFSSLPKYNEADEFFIEKKQKIDELEDNLKKLSKSLEMVDTSRNTLAASTEEFSSMVETLASLNVSEPNSELLNNFADVHKSIKSSLERSSLQETLTMGVMLDDYIRSLASVKAIFNQRSKLGYFLVVIENDMNKKHSQLGKLGQNIHSEKFREMRKEFQTLERRYNLTKKQWQAVGDKIKDEFQGFSTDKIREFRNGMEISLEAAIESQKECIELWETFYQTNL
chain 2: MTSAVPYDPYDDLDNNPFAEPQEEDSEPAATTTDGSSSMSEERVGTEQTAASVQDNGTANNIQNGLGEEGNATRSKTSNEHNENQQPSQPSERVILPERSDEKKKYTLLAKVTGLERFGSATGKKENPTIIFDCSTNLPTFRKQQYKNVKKSYEEFHQLFKYLNVAIQESFVPTLPSAYTTFGINSEEDRMKVTRNFQLWFNRLSQDPLIIRNEEVAFFIESDFNTYTPINKSKSLASGLKRKTLKQLAPPYDEITELAEFRPLVKSIYVVSQSLQEKLLRVSRNRKMMVQEENAFGQDFVNLDEHNKLYRRYGKILTAVGDIDSIIATMDMATLYDGLEWIVRDAYAVKEALTNRHFIMRNLVQAQQNSKAKQEQARRFRSRRDINPMKIDEALRQLKAAAKNEQVLTLKLQRITSNMIIERKQWISWYEEWIRSSIKEFTLRKIEYERKKLTLLERVRSDIRKADENGGLSRLGRHAVSNNNSDTSQTLKGDSWTGESNRKSQIPINKIAHTEFDDELFTEDDGYNSQDSDTTSLNARHAASLLGMSTK
binding result [1]: binds

B2: retromer^mClover (yeast Vps26/Vps29/Vps35 complex carrying mClover-tagged Vps29), wild-type Vps35 (complex, S. cerevisiae)
chain 1: MSIFFKPPIDIEILFDNEESRKHVDIATRSSNSSYKSMKESLPVYEDGESLGGIVTLRVRDSKKVDHLGIKVSVIGSIDMLKSHGSGNSSSKKVTSSTSSSSSNGSVDVRKNSVDQFLCQSYDLCPAGELQHSQSFPFLFRDLSKRYESYKGKNVDVAYYVKVTVMRKSTDISKIKRFWVYLYNSVTTAPNTLSANETKATTNDIAGGNYAADNASDNTQTKSTQGEAADVNQVLPISHSNNEPKPVRLDIGIENCLHIEFEYAKSQYSLKEVIVGRIYFLLTRLRIKHMELSLITRESSGLQTSNVMTDSTAIRYEIMDGSSVKGETIPIRLFLSGYDLTPNMSCNYFNVKNYLSLVIIDEDGRRYFKQSEITLYRTR
chain 2: MLLLALSDAHIPDRATDLPVKFKKLLSVPDKISQVALLGNSTKSYDFLKFVNQISNNITIVRGEFDNGHLPSTKKDKASDNSRPMEEIPMNSIIRQGALKIGCCSGYTVVPKNDPLSLLALARQLDVDILLWGGTHNVEAYTLEGKFFVNPGSCTGAFNTDWPIVFDVEDSDEAVTSEVDKPTKENQSEDDDAKGGSTGKEQPGSYTPKEGTAGERENENESNVKPENQFKEDEVDMSDSDINGSNSPSFCLLDIQGNTCTLYIYLYVNGEVKVDKVVYEKE
chain 3: MAYADSPENAIAVIKQRTALMNRCLSQHKLMESLQHTSIMLTELRNPNLSPKKYYELYVIIFDSLTNLSTYLIENHPQNHHLADLYELVQYTGNVVPRLYLMITVGTSYLTFNEAPKKEILKDMIEMCRGVQNPIRGLFLRYYLSQRTKELLPEDDPSFNSQFIMNNFIEMNKLWVRLQHQGPLRERETRTRERKELQILVGSQLVRLSQIIDDNFQMYKQDILPTILEQVIQCRDLVSQEYLLDVICQVFADEFHLKTLDTLLQTTLHLNPDVSINKIVLTLVDRLNDYVTRQLEDDPNATSTNAYLDMDVFGTFWDYLTVLNHERPDLSLQQFIPLVESVIVLSLKWYPNNFDNLNKLFELVLQKTKDYGQKNISLESEHLFLVLLSFQNSKLQLTSSTTAPPNSPVTSKKHFIFQLISQCQAYKNILALQSISLQKKVVNEIIDILMDREVEEMADNDSESKLHPPGHSAYLVIEDKLQVQRLLSICEPLIISRSGPPANVASSDTNVDEVFFNRHDEEESWILDPIQEKLAHLIHWIMNTTSRKQTMKNKIQFSLEAQLEILLLIKSSFIKGGINVKYTFPAIITNFWKLMRKCRMIQEYLLKKRPDNKTLLSHYSNLLKQMFKFVSRCINDIFNSCNNSCTDLILKLNLQCAILADQLQLNEISYDFFSQAFTIFEESLSDSKTQLQALIYIAQSLQKTRSLYKEAYYDSLIVRCTLHGSKLLKKQDQCRAVYLCSHLWWATEISNIGEEEGITDNFYRDGKRVLECLQRSLRVADSIMDNEQSCELMVEILNRCLYYFIHGDESETHISIKYINGLIELIKTNLKSLKLEDNSASMITNSISDLHITGENNVKASSNADDGSVITDKESNVAIGSDGTYIQLNTLNGSSTLIRGVVATASGSKLLHQLKYIPIHHFRRTCEYIESQREVDDRFKVIYV
stoichiometry N (native gel or EMSA): 2 and 4

B3: retromer^PISA-mClover (Vps26/Vps29-mClover/Vps35^PISA) (complex, S. cerevisiae)
chain 1: B2 chain 1
chain 2: B2 chain 2
chain 3: B2 chain 3 with D671A, L722A, K726A, R775A
binding result (native gel or EMSA): binds
